Blank lines part the entries; values can stand above or below the binder they belong to.
What was measured:
[1] = target: T1, eGFP C-terminal fused full-length human OASL (human, UniProt Q15646 1-514); experiment: in vitro recruitment into phase-separated droplets (fluorescence microscopy); settings: both partners purified
T1 construct: also called OASL–GFP; GFP-tagged full-length OASL; source: E. coli BL21 DE3 (pLys), purified (glutathione sepharose 4B, GST removed with PreScission protease); not shown: eGFP, C-terminal, kept
T1 sequence (looked up): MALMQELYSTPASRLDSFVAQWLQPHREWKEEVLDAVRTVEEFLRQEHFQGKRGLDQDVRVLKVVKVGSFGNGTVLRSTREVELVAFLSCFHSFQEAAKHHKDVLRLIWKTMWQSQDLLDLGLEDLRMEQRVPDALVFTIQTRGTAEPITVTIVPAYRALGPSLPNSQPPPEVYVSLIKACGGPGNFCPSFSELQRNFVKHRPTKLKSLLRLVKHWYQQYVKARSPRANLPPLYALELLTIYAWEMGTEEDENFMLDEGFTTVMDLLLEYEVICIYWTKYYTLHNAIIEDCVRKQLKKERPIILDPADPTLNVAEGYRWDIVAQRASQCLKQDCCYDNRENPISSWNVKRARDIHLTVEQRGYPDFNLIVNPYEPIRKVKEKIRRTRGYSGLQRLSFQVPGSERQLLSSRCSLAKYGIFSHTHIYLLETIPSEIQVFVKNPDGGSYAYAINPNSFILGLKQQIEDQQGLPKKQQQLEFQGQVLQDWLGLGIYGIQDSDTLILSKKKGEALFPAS

[2] = target: T2, mCherry C-terminal fused full-length human RIPK3 (human, UniProt Q9Y572 1-518); experiment: as above; settings: both partners purified
T2 construct: also called RIPK3–mCherry; mCherry-tagged full-length RIPK3; source: E. coli BL21 DE3 (pLys), purified (glutathione sepharose 4B, GST removed with PreScission protease); not shown: mCherry, C-terminal, kept

- binding result [1]: binds
B1: BFP C-terminal fused full-length human ZBP1 (natural protein, UniProt Q9H171 1-429, looked up)
chain: MAQAPADPGREGHLEQRILQVLTEAGSPVKLAQLVKECQAPKRELNQVLYRMKKELKVSLTSPATWCLGGTDPEGEGPAELALSSPAERPQQHAATIPETPGPQFSQQREEDIYRFLKDNGPQRALVIAQALGMRTAKDVNRDLYRMKSRHLLDMDEQSKAWTIYRPEDSGRRAKSASIIYQHNPINMICQNGPNSWISIANSEAIQIGHGNIITRQTVSREDGSAGPRHLPSMAPGDSSTWGTLVDPWGPQDIHMEQSILRRVQLGHSNEMRLHGVPSEGPAHIPPGSPPVSATAAGPEASFEARIPSPGTHPEGEAAQRIHMKSCFLEDATIGNSNKMSISPGVAGPGGVAGSGEGEPGEDAGRRPADTQSRSHFPRDIGQPITPSHSKLTPKLETMTLGNRSHKAAEGSHYVDEASHEGSWWGGGI
notes: also called ZBP1–BFP; not shown: BFP, C-terminal, kept

- binding result [1]: binds
B2: mCherry C-terminal fused C-terminal unstructured region of human RIPK3 (RIPK3 295–518) (domain or fragment, UniProt Q9Y572 295-518, looked up)
chain: NAAVSTVKDFLSQLRSSNRRFSIPESGQGGTEMDGFRRTIENQHSRNDVMVSEWLNKLNLEEPPSSVPKKCPSLTKRSRAQEEQVPQAWTAGTSSDSMAQPPQTPETSTFRNQMPSPTSTGTPSPGPRGNQGAERQGMNWSCRTPEPNPVTGRPLVNIYNCSGVQVGDNNYLTMQQTTALPTWGLAPSGKGRGLQHPPPVGSQEGPKDPEAWSRPQGWYNHSGK
notes: also called RIPK3_(295–518)–mCherry; C-terminal RIPK3_(295–518); source: E. coli BL21 DE3 (pLys), purified (glutathione sepharose 4B, GST removed with PreScission protease); not shown: mCherry, C-terminal, kept

- binding result [2]: binds
B3: purified untagged full-length OASL (natural protein, human, UniProt Q15646 1-514, looked up)
chain: T1 sequence (looked up)
notes: also called purified human OASL protein; source: purified

Source: paper PMC9859756, “OASL phase condensation induces amyloid-like fibrillation of RIPK3 to promote virus-induced necroptosis” (Nature Cell Biology, 2023)
